# Data: patent US7439329B2, “GEF-H1b: biomarkers, complexes assays and therapeutic uses thereof” (Sugen, Inc., priority 2002, dated 2008)
# Numbering of substitutions follows the chain as printed. Names may count otherwise.
# B1: amino acids 1-309: amino-terminal regulatory domain of PAK4 alone (protein, UniProt O96013 1-309, looked up, fragment)
# chain: MFGKRKKRVEISAPSNFEHRVHTGFDQHEQKFTGLPRQWQSLIEESARRPKPLVDPACITSIQPGAPKTIVRGSKGAKDGALTLLLDEFENMSVTRSNSLRRDSPPPPARARQENGMPEEPATTARGGPGKAGSRGRFAGHSEAGGGSGDRRRAGPEKRPKSSREGSGGPQESSRDKRPLSGPDVGTPQPAGLASGAKLAAGRPFNTYPRADTDHPSRGAQGEPHDVAPNGPSAGGLAIPQSSSSSSRPPTRARGAPSPGVLGPHASEPQLAPPACTPAAPAVPGPPGPRSPQREPQRVSHEQFRAALQ
# B2: amino acids 291-355: biotinylated PAK4 peptide covering a more C-terminal region (peptide, UniProt O96013 291-355, looked up, fragment)
# chain: SPQREPQRVSHEQFRAALQLVVDPGDPRSYLDNFIKIGEGSTGIVCIATVRSSGKLVAVKKMDLR
# modifications: biotin
# notes: biotinylated PAK4 peptide covering a more C-terminal region
# B3: S474E: activated PAK4 mutant (protein)
# chain: MFGKRKKRVEISAPSNFEHRVHTGFDQHEQKFTGLPRQWQSLIEESARRPKPLVDPACITSIQPGAPKTIVRGSKGAKDGALTLLLDEFENMSVTRSNSLRRDSPPPPARARQENGMPEEPATTARGGPGKAGSRGRFAGHSEAGGGSGDRRRAGPEKRPKSSREGSGGPQESSRDKRPLSGPDVGTPQPAGLASGAKLAAGRPFNTYPRADTDHPSRGAQGEPHDVAPNGPSAGGLAIPQSSSSSSRPPTRARGAPSPGVLGPHASEPQLAPPACTPAAPAVPGPPGPRSPQREPQRVSHEQFRAALQLVVDPGDPRSYLDNFIKIGEGSTGIVCIATVRSSGKLVAVKKMDLRKQQRRELLFNEVVIMRDYQHENVVEMYNSYLVGDELWVVMEFLEGGALTDIVTHTRMNEEQIAAVCLAVLQALSVLHAQGVIHRDIKSDSILLTHDGRVKLSDFGFCAQVSKEVPRRKELVGTPYWMAPELISRLPYGPEVDIWSLGIMVIEMVDGEPPYFNEPPLKAMKMIRDNLPPRLKNLHKVSPSLKGFLDRLLVRDPAQRATAAELLKHPFLAKAGPPASIVPLMRQNRTR
# B4: wild type PAK4 (1-591): wild type p-21-activated kinase 4 expressed from pcDNA (protein)
# chain: B3 chain with E474S
# B5: PAK4 kinase dead K350,351A: kinase inactive PAK4 mutant (protein, UniProt O96013 1-591, looked up, variant K350A K351A)
# Serine/threonine-protein …: B3 chain with K350A, K351A, E474S
# Key:
# GEF-H1S [1] = molecular target: T1, GEF-H1S (Homo sapiens, UniProt Q92974, INS962GETLAETWTR); experiment: Pull-down of GEF-H1 with PAK4 domains and biotinylated PAK4 peptides; assay type: binding; conditions: PAK4 domain expressed in 293T lysate; GST-GEF-H1S (aa763-921) on glutathione beads
# T1 sequence (Q92974 with tags, fused parts or gaps): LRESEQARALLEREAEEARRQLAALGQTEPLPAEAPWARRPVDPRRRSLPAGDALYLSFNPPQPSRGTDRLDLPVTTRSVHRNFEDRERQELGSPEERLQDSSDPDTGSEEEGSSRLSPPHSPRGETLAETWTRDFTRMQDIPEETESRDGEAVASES
# Experimental: (§1) FIG. 1: (SEQ ID NOs 32-34 respectively in order of appearance) Direct binding of GEF-H1 to PAK4. Lysates were prepared from 293T cells over expressing (a) myc tagged PAK4 alleles or subdomains and incubated with GST, GST-GEF-H1 (787-921) and GST-Maguin-like bound to Glutathione beads (1,2,3,4 bead designation) or (b) GFP-GEF-H1 and incubated with PAK4 biotinylated peptides (291-355) and (276-324) linked to streptavidin beads. An equivalent amount of beads and excess lysates (500 ug) were used. Eluates of beads and total lysates were analysed by SDS-PAGE and immunoblotted with myc or GEF-H1 antiserum; (c) represents a PAK4 gene schematic outlining the regions of PAK4 used to identify the GEF-H1 interaction domain (GID). d, alignment of the GID defined by the minimal binding region of PAK4 with PAK5 and PAK6.
# (§2) To confirm the in vitro interaction of GEF-H1S with PAK4, bacterially expressed GST-fusion proteins were generated with the identical sequences isolated by phage display, encoding either amino acids 763-921 of GEF-H1S or amino acids 385-555 from the Maguin-2-like protein. These fusion proteins were bound to glutathione beads and utilized in binding assays with 293T lysates expressing exogenous PAK4.
# (§3) Biotinylated peptides derived from the N-terminal region of PAK4 sequence were used to further map the GEF-H1 binding site. […]
# GEF-H1S [2] = molecular target: T2, GEF-H1S (Homo sapiens, UniProt Q92974, INS962GETLAETWTR); experiment: as above; assay type: binding; conditions: biotinylated PAK4 peptides linked to streptavidin beads
# T2 sequence (Q92974 with tags, fused parts or gaps): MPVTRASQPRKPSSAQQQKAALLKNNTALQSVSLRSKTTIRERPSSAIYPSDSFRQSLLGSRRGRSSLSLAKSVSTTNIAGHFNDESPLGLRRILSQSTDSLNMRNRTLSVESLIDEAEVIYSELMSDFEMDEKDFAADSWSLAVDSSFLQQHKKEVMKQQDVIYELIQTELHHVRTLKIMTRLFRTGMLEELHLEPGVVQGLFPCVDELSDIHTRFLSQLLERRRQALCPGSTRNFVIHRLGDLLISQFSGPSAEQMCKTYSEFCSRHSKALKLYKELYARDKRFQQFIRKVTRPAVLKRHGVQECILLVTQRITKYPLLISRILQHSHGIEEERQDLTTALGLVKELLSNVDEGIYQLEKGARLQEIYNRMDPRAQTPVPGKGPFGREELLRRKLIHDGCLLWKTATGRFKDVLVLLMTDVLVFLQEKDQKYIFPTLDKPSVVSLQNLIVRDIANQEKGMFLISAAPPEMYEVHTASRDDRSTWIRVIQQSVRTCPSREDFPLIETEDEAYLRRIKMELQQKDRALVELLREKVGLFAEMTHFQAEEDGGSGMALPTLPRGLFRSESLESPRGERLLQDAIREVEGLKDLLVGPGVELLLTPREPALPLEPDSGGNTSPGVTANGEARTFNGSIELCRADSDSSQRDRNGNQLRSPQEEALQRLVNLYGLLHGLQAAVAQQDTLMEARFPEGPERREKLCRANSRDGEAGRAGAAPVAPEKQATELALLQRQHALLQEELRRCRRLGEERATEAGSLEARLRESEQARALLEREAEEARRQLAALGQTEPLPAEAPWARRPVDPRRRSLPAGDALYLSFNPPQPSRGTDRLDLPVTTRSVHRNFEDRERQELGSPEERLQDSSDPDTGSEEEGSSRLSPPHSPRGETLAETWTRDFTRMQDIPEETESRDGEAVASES
# Experimental: as §1, §2, §3
# GEF-H1S [3] = experiment: Co-transfection of GEF-H1S and PAK4 alleles, Western blot with phospho-specific GEF-H1 antibodies; assay type: cell-based, human
# Experimental: To confirm that GEF-H1S phosphorylation by PAK4 occurs at these sites in vivo, co-transfection assays were performed and analyzed phosphorylation of GEF-H1 by use of a phospho-specific antibody directed against phospho-serine 810. This antibody is specific for GEF-H1 that is phosphorylated on Ser 810. […] Expression of the kinase-dead PAK4 is also able to inhibit endogenous PAK4 basal phosphorylation of GEF-H1S on Ser 810.
# In this experiment GEF-H1S expression vector was pRSV/Rc and the PAK4 expression vector was pcDNA. Lysates were prepared from the transfected 293T cells and analyzed by Western Blot using the anti-1009 reagent. […] These phosphospecific antibodies can be used to detect PAK4 activity in tumors by virtue of its specific phosphorylation of GEF-H1.
# [4] = co-expression with GEF-H1S in mammalian (293T) cells, anti-1009 Western blot, relative to basal phosphorylation
molecule,measurement,setting,value
B1,interaction with GEF-H1S,GEF-H1S [1],did not stably interact
B2,interaction with GEF-H1S,GEF-H1S [2],did not
B3,phosphorylation of GEF-H1S on Ser 810,GEF-H1S [3]; [4],marked increase
same,phosphorylation of GEF-H1S on Ser 810,"GEF-H1S [3]; co-expression with GEF-H1S in mammalian (293T) cells, anti-1009 Western blot, relative to basal phosphorylation, listed as activated PAK4",enhanced
same,phosphorylation of GEF-H1S on Ser 67,"GEF-H1S [3]; co-transfection with GEF-H1S, phospho-specific antibodies against Ser 67",stimulated phosphorylation
B4,phosphorylation of GEF-H1S on Ser 810,GEF-H1S [3]; co-expressed with Cdc42,enhanced
same,phosphorylation of GEF-H1S on Ser 810,GEF-H1S [3]; [4],marked increase
B5,phosphorylation of GEF-H1S on Ser 810,GEF-H1S [3]; [4],marked decrease
same,phosphorylation of GEF-H1S on Ser 810,"GEF-H1S [3]; co-expression with GEF-H1S in mammalian (293T) cells, anti-1009 Western blot, relative to basal phosphorylation, listed as kinase-dead PAK4",inhibit
